# Test results reported in patent publication US20220259593A1, “CONTROL OF MAMMALIAN GENE DOSAGE USING CRISPR” (The Regents of the University of California, priority 2019, published 2022).
# Test system: K562 CRISPRi cells
# Experiment: Constant region variant library pooled growth screen, K562
# Assay type: cell-based, human
# Conditions: sgRNA constant region variants; activity relative to the original, un-modified constant region cr995
# Outline: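 Cells were selected with puromycin for 2 days and then kept in RPMI-1640 spinner cultures, with duplicates handled separately. Targeting sequences comprised 3 sgRNAs per essential gene for 10 genes plus six non-targeting controls. Activities were normalized against pairing with the unmodified scaffold.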
row,Molecule,Mean relative activity
1,"cr309 (nucleic acid, listed as DNA, chemistry not fully specified) guide: GTTTAAGAGCTAAGCTGGAAACAGCATAGCAAGGTTAAATAAGGCTAGGCCGTTATCAACTTGAAAAAGTGGCACCGAGTCGGTGCT",0.005045
2,"cr472 (nucleic acid, listed as DNA, chemistry not fully specified) guide: GTTTAAGAGCTAAGCTGGAAACAGCATAGCAAGGTTAAATAAGGTTAATCCGTTATCAACTTGAAAAAGTGGCACCGAGTCGGTGCT",0.004917
3,"cr903 (nucleic acid, listed as DNA, chemistry not fully specified) guide: GTTTAAGAGCTAAGCTGGAAACAGCATAGCAAGTTTAAATAAGGCTAGTCCCTTATCAACTTGAAAAAGTGGCACCGAATCGGTGCT",0.00222
4,"cr070 (nucleic acid, listed as DNA, chemistry not fully specified) guide: GTTTAACGGCTAAGCTGGAAACAGCATAGCAAGTTTAAATAAGGCTAGTCCGTTATCAACTTGAAAAAGTGGCACCGAGTCGGTGCT",1.03
5,"cr049 (nucleic acid, listed as DNA, chemistry not fully specified) guide: GTGTTAGAGCTAAGCTGGAAACAGCATAGCAAGTTTAAATAAGGCTAGTCCGTTATCAACTTGAAAAAGTGGCACCGAGTCGGTGCT",0.003203
6,"cr660 (nucleic acid, listed as DNA, chemistry not fully specified) guide: GTTTAAGAGCTAAGCTGGAAACAGCATAGCAAGTTTAAATAATGCTAGTCCGTTATCAACTTGAAAAAGTGGCACCGAGTCGGTGCT",0.004102
7,"cr981 (nucleic acid, listed as DNA, chemistry not fully specified) guide: GTTTAAGAGCTAAGCTGGAAACAGCATAGCAAGTTTAAATAACGCTAGTCGGTTATCAACTGGAAACAGTGGCACCGAGTCGGTGCT",0.003266
8,"cr303 (nucleic acid, listed as DNA, chemistry not fully specified) guide: GTTTAAGAGCTAAGCTGGAAACAGCATAGCAACTTTAAATAAGGCTTGTCCGTTATCAACTTGAAAAAGTTGCACCGAGTCGGTGCT",0.003573
9,"cr849 (nucleic acid, listed as DNA, chemistry not fully specified) guide: GTTTAAGAGCTAAGCTGGAAACAGCATAGCAACGTTAAATAAGGCTAGTCCGTTATCAACTTGAAAAAGTGGCACCGAGTCGGTGCT",0.004706
10,"cr753 (nucleic acid, listed as DNA, chemistry not fully specified) guide: GTTTAAGAGCTAAGCTGGAAACAGCATAGCAAGTTTAAATAACGCTAGTCGGTTATCATCTTGAAAAAGAGGAACCGAGTCGGTTCT",0.004302
11,"cr225 (nucleic acid, listed as DNA, chemistry not fully specified) guide: GTTTAAGAGCTAAGCTGGAAACAGCATAGCAAGTTTAAATAATGCTATTCCGTTATCAACTTGAAAAAGTGGCACCGAGTCGGTGCT",0.002658
12,"cr845 (nucleic acid, listed as DNA, chemistry not fully specified) guide: GTTTAAGAGCTAAGCTGGAAACAGCATAGCAAGGTTAAATAAAGCTAGTCTGTTATCAACTTGAAAAAGTGGCACCGAGTCGGTGCT",0.004644
13,"cr833 (nucleic acid, listed as DNA, chemistry not fully specified) guide: GTTTAAGAGCTAAGCTGGAAACAGCATCGCAACTTTAAATAAGGCTAGTCCGTTATCAACTTGAAAAAGTCGCACCGAGTCGGTGCT",0.004215
14,"cr297 (nucleic acid, listed as DNA, chemistry not fully specified) guide: GTTTAAGAGCTAAGCTGGAAACAGCATAGCAAGTTTAAATAAGGCTAGGCCGTTATCAACTTGAAAAAGTCGCACCGAGTCGGTGCT",0.004872
15,"cr674 (nucleic acid, listed as DNA, chemistry not fully specified) guide: GTTTAAGAGCTAAGCTGGAAACAGCATAGCAAGTTTAAATAACGCTAGTCGGTTATCATCTTGAAAAAGAGGCACCGAGTCGGTGCT",0.00279
16,"cr381 (nucleic acid, listed as DNA, chemistry not fully specified) guide: GTTTAAGAGCTAAGCTGGAAACAGCATAGCAAGTTTAAATTAGGCTCGTCCGTTATCAACTTGACAAAGTGGCACCGAGTCGGTGCT",0.003196
17,"cr482 (nucleic acid, listed as DNA, chemistry not fully specified) guide: GTTTAAGAGCTAAGCTGGAAACAGCATAGCAAGTTTAAATAAGGCTTGTCCCTTATCAACTTGAAAAAGTGGCACCGAGTCGGTGCT",0.003006
18,"cr857 (nucleic acid, listed as DNA, chemistry not fully specified) guide: GTTTAAGAGCTAAGCTGGAAACAGCATAGCAAGTTTAAATTAGGCTAGTCCGTTATCAACTTGAAAAAGTCGCACCGAGCCGGTGCT",0.004274
19,"cr572 (nucleic acid, listed as DNA, chemistry not fully specified) guide: GTTTAAGAGCTAAGCTGGAAACAGCATAGCAAGTTTAAATAACCGAACTCGGTTATCAACTTGAAAAAGTGGCACCGAGTCGGTGCT",0.002782
20,"cr400 (nucleic acid, listed as DNA, chemistry not fully specified) guide: GTTTAAGAGCTAAGCTGGAAACAGCATAGCAAGGTTAAATAAGGATATTCCGTTATCAACTTGAAAAAGTGGCACCGAGTCGGTGCT",0.00451
21,"cr271 (nucleic acid, listed as DNA, chemistry not fully specified) guide: GTTTAAGAGCTAAGCTGGAAACAGCATAGCAAGTTTAAATAAGGCTAGTCCGTTATCAACTTGAAAAAGTGGTCCCGAGTCGGGACT",1.03
22,"cr203 (nucleic acid, listed as DNA, chemistry not fully specified) guide: GTTTAAGAGCTAAGCTGGAAACAGCATAGCAACTTTAAATAAGGCTAGTCCTTTATCAACTTGAAAAAGTGGCACCGAGTCGGTGCT",0.004333
23,"cr608 (nucleic acid, listed as DNA, chemistry not fully specified) guide: GTTTAAGAGCTAAGCTGGAAACAGCATAGCAACTTTAAATAAGGGTACTCCGTTATCAACTTGAAAAAGTGGCACCGAGTCGGTGCT",0.002568
24,"cr469 (nucleic acid, listed as DNA, chemistry not fully specified) guide: GTTTAAGAGCTAAGCTGGAAACAGCATAGCAAGTTTAAATAAGGCTAGTCCCTTATCAACTTGAAAAAGTGGCACCGAGTCGGTGCT",0.003211
25,"cr068 (nucleic acid, listed as DNA, chemistry not fully specified) guide: GTTAGAGAGCTAAGCTGGAAACAGCATAGCAAGTTTAAATAAGGCTAGTCCGTTATCAACTTGAAAAAGTGGCACCGAGTCGGTGCT",0.002959
26,"cr735 (nucleic acid, listed as DNA, chemistry not fully specified) guide: GTTTAAGAGCTAAGCTGGAAACAGCATAGCAACTTTAAATAAGGCTAGTCCGTTATCAACTTGAAAAAGTCGCACCGAGTCGGTGCT",0.002596
27,"cr094 (nucleic acid, listed as DNA, chemistry not fully specified) guide: GATTTAGAGCTAAGCTGGAAACAGCATAGCAAGTTTAAATAAGGCTAGTCCGTTATCAACTTGAAAAAGTGGCACCGAGTCGGTGCT",0.004414
28,"cr536 (nucleic acid, listed as DNA, chemistry not fully specified) guide: GTTTAAGAGCTAAGCTGGAAACAGCATAGCAACTTTAAATAAGGATATTCCGTTATCAACTTGAAAAAGTGGCACCGAGTCGGTGCT",0.003951
29,"cr245 (nucleic acid, listed as DNA, chemistry not fully specified) guide: GTTTAAGAGCTAAGCTGGAAACAGCATAGCAAGGTTAAATAAGACTAGTTCGTTATCAACTTGAAAAAGTGGCACCGAGTCGGTGCT",0.00372
30,"cr657 (nucleic acid, listed as DNA, chemistry not fully specified) guide: GTTTAAGAGCTAAGCTGGAAACAGCATAGCAAGTTTAAATAAGGCTAGTGCGTTATCAACTTGAAAAAGTGGCACCGAGTCGGTGCT",0.002604
